Assay results reported in publication doi:10.1101/2024.12.01.621710 (bioRxiv, 2024).
Values joined by “and” are separate entries in the source; they are usually repeats but may differ in a detail not shown here. Equal entries are not always repeated. Where two headings read alike, the source gives them in different places.

Key:
[1] = biological target: MBP-IPAM C-ter (Chlamydia trachomatis serovar L2 (LGV 434/Bu)); test: SEC + other: mass photometry
[2] = biological target: MBP-InaC C-ter (Chlamydia trachomatis serovar L2 (LGV 434/Bu)); test: SEC + other: mass photometry
[3] = biological target: MBP-IncA C-ter (Chlamydia trachomatis serovar L2 (LGV 434/Bu)); test: SEC + other: mass photometry
[4] = biological target: the molecule itself
[5] = biological target: the molecule itself; test: SEC + other: mass photometry

## MBP-IPAM C-ter (domain or fragment)
[1]
  stoichiometry N: 2 and 3

## MBP-InaC C-ter (domain or fragment)
[2]
  stoichiometry N: 2 and 3

## MBP-IncA C-ter (domain or fragment)
[3]
  stoichiometry N: 4

B1: MBP-CpoS C-ter (domain or fragment)
chain: ARARSRRVEIERQLEVVSMQIEELEEEYKALSEVYRANLEARRAVSKYCQELEEKILDLCKRHAATICSIEEDAKQEIRHQTERFKQRLQQNQNTCSQLTAELCKLRSENKALSERLQVQASRRKK
[4]
  stoichiometry N: 2
[5]
  stoichiometry N: 4 and 8
